The target of assay [1] is T1, fusion gene product of GAL4-DNA-binding domain and Apoptin (bait plasmid pGBT-VP3) (chicken anemia virus, UniProt P04386 1-147; Q99152 1-121).
T1 construct: Yeast two-hybrid bait, expressed in yeast strain Y190; also called pGBT9-VP3; not shown: residues encoded by the EcoRI-NdeI linker
As to the kind of experiment: yeast two-hybrid.

For assay [2], the target named is T1, fusion gene product of GAL4-DNA-binding …. Description: yeast two-hybrid control (HIS3 and LacZ reporters).

B1: GAL4-activation domain fusion of the AAP-3 cDNA clone (pACT) (other)
chain: HEGPMVGGGGVGGGLLENANPLIYQRSGERPVTAGEEDEQVPDSIDAREIFDLIRSINDPEHPLTLEELNVVEQVRVQVSDPESTVAVAFTPTIPHCSMATLIGLSIKVKLLRSLPQRFKMDVHITPGTHASEHAVNKQLADKERVAAALENTHLLEVVNQCLSARS
notes: Yeast two-hybrid prey; also called Apoptin-associating clone AAP-3
With B1, in assay [1], the binding result was “binds”.

B2: GAL4-activation domain of the empty pACT vector (other)
chain: ANFNQSGNIADSSLSFTFTNSSNGPNLITTQTNSQALSQPIASSNVHDNFMNNEITASKIDDGNNSKPLSPGWTDQTAYNAFGITTGMFNTTTMDDVYNYLFDDEDTPPNPKKE
notes: Negative control of the yeast two-hybrid system
With B2, the binding result in assay [2] is “no binding”.

Values taken from patent US20020019040A1 (LEADD B V, published 2002).
